For orientation: Kd means the constant that tells how readily two partners part at equilibrium. The IC50 is the concentration at which inhibition is half-maximal. A low value points to higher potency.

These results are taken from patent US20110293610A1 (published 2011).

Experiment [1] concerns the target T1, B Lymphocyte Stimulator, soluble form (human) (human, UniProt Q9Y275 134-285, biotinylated with NHS-biotin where used as biotinylated B Lymphocyte Stimulator).
T1 construct: Coated on plastic, captured on streptavidin plates, amine-coupled to a CM5 chip or free in solution, depending on the assay; also called BLyS; immobilized B Lymphocyte Stimulator
As to the kind of experiment: phage competition ELISA. Background: ELISA stands for enzyme-linked immunosorbent assay.

Experiment [2] addresses T2, Fas ligand (human, UniProt P48023 134-281, limits assumed).
T2 sequence (looked up): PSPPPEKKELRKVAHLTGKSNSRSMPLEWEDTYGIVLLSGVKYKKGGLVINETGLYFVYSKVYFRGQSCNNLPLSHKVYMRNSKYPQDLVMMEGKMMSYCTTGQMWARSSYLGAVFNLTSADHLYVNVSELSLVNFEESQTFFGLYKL
The experiment is described as follows: phage ELISA.

Experiment [3] deals with T3, mouse B Lymphocyte Stimulator (mouse, UniProt Q9WU72 127-309, limits assumed).
T3 construct: also called murine B Lymphocyte Stimulator; immobilized mouse B Lymphocyte Stimulator
As to the kind of experiment: phage ELISA.

Experiment [4] addresses T4, TRAIL (human, UniProt P50591 114-281).
T4 construct: also called TNF-related apoptosis inducing ligand
As to the kind of experiment: phage ELISA.

Experiment [5] deals with T5, membrane-bound B Lymphocyte Stimulator on U937 plasma membrane preparations (human, UniProt Q9Y275 1-285).
T5 construct: Natural protein in plasma membrane fractions of the human cell line U937 coated on ELISA plates; also called U937 plasma membranes; U937 membranes
As to the kind of experiment: phage ELISA.

Experiment [6] has as its target T6, TNF-alpha (human, UniProt P01375 77-233).
T6 construct: also called TNFα; TNF-α
The experiment is described as follows: phage ELISA.

Experiment [7] addresses T7, TNF-beta (human, UniProt P01374 35-205).
T7 construct: also called TNFβ; Tumour Necrosis Factor-beta
T7 sequence (looked up): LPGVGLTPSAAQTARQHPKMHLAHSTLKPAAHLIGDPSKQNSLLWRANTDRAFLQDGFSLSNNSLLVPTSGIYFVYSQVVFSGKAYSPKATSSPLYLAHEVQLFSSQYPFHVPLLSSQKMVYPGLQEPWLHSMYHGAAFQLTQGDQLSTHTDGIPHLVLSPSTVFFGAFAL
The experiment is described as follows: phage ELISA.

The target in experiment [8] is T8, HIS-tagged B Lymphocyte Stimulator (human, UniProt Q9Y275 71-285).
T8 construct: Expressed in E. coli; also called HIS-B Lymphocyte Stimulator; histidine-tagged B Lymphocyte Stimulator; not shown: histidine tag from the pQE9 vector
The experiment is described as follows: BIAcore, purified scFv over low density HIS-BLyS surface. The method, then:
The chip containing the low density HIS-B Lymphocyte Stimulator surface was inserted into the BIAcore. […] The dilution series was then injected sequentially over the blank control (flow cell 1) and low density HIS-B Lymphocyte Stimulator surface (flow cell 2) using the following program: […]
In general terms: Surface plasmon resonance follows binding to a sensor surface in real time, without labels.

Experiment [9] has as its target T9, Bovine serum albumin (bovine, UniProt P02769 25-607).
T9 construct: also called BSA
As to the kind of experiment: phage ELISA.

Experiment [10] has as its target LIGHT (human, UniProt O43557 74-240, limits assumed). As to the kind of experiment: phage ELISA.
In experiment [11] the target is T1, B Lymphocyte Stimulator, soluble form …. The experiment is described as follows: purified scFv, inhibition of biotinylated BLyS binding to IM9 cells. The method, then:
To a separate 96-well plate, titrate test scFvs in MPBS, in triplicate, over a concentration range from 10 μg/ml down to 0.001 μg/ml were added. The final volume of test scFv in each well was 55 μl. […] Plates were then incubated at room temperature for 30 minutes.
Plates were washed three times in PBST and three times in PBS, tapped dry and 50 μl per well added of streptavidin-Delfia (Wallac) at 1:1000 dilution in the Manufacturer's assay buffer. The plates were then incubated at room temperature for 1 hour and washed six times in Delfia wash solution (Wallac). After tapping the plates dry, 100 μl per well of Delfia enhancement solution (Wallac) was added. The plates were gently tapped to encourage micelle formation, incubated at room temperature for 10 minutes, and fluorescence read on a Wallac 1420 workstation at […].

Numbering of substitutions follows the chain as printed.

T4 sequence (P50591 114-281 limits assumed): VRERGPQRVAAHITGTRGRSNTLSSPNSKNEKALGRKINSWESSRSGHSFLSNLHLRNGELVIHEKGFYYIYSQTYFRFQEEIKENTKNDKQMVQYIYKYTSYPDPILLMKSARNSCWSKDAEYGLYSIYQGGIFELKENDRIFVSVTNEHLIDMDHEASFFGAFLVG
T6 sequence (P01375 77-233 limits assumed): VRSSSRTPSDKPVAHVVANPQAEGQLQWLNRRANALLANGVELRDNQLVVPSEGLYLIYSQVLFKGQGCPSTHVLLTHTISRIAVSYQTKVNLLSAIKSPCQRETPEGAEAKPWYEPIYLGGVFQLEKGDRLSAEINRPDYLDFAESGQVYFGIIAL
T3 sequence (Q9WU72 127-309 limits assumed): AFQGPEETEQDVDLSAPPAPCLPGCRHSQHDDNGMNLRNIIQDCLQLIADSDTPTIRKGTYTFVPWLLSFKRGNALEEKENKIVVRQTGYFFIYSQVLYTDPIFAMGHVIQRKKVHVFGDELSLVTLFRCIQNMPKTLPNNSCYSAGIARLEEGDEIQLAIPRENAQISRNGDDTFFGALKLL
T9 sequence (P02769 25-607 limits assumed): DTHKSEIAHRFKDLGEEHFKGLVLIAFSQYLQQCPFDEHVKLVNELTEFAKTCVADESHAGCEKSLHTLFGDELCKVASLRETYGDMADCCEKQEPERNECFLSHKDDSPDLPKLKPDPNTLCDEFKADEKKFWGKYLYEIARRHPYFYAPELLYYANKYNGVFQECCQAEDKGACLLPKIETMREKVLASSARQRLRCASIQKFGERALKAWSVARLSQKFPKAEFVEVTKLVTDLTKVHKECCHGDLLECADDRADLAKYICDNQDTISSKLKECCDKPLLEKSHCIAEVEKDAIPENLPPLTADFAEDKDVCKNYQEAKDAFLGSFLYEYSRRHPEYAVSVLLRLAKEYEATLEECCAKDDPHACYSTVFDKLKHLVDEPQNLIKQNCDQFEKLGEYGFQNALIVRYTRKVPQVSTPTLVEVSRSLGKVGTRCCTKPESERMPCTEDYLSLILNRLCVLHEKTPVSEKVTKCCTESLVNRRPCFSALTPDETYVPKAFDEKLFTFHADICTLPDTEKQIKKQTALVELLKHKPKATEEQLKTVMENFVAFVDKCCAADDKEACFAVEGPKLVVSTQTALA
Chain of LIGHT (O43557 74-240 limits assumed): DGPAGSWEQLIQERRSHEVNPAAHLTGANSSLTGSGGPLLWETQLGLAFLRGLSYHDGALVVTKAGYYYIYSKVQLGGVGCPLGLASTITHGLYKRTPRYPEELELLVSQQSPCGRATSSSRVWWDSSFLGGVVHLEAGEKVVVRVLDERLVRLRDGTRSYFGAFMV

B1: I008C03 (scFv)
scFv: QMQLVRSGGGVVQPGRSLRLSCAASGFTFSSYGMHWVRQAPGKGLEWVSVTYSGGNTNYADSVRGRFTISRDNSKNTLYLQMNSLRAEDTAVYYCAREGSYDILTGYYVGVGRMDVWGKGTLVTVSSGGGGSGGGGSGGGGSSELTQDPAVSVALGQTVRITCQGDSLRSYYTNWFQQKPGQAPLLVVYAKNKRPSGIPDRFSGSSSGNTASLTITGAQAEDEADYYCNSRDSSGNHVVFGGGTKLTVLG
Consider B1, for which the binding result in [1] is “binds”; in experiment [2], “no binding”; in [3], “no binding”; in [4] it was “no binding”; in experiment [5] it was “binds”; in experiment [6], “no binding”. Moreover, the binding result in [7] is “no binding”.

B2: I079E02 (scFv)
scFv: QVQLVQSGAEVKKPGSSVKVSCKASGGTFSSYAISWVRQAPGQGLEWMGGIIPIFGTANYAQKFQGRVTITADKSTSTAYMELSSLRSDDTAVYYCARDSGSYYYDAFDIWGKGTMVTVSSGGGGSGGGGSGGGGSDIVMTQSPSTLSASVGDRVTITCRASQGISSWLAWYQQKPGKAPKLLIYAASSLQSGVPSRFSGSGSGTDFTLTISSLQPEDFATYYCQQANSFPLTFGGGTKVEIKR
As to B2, the Kd in [8] is 10 nM.

B3: I016H07 (scFv)
scFv: GVQLVQSGAEVKKPGASVKVSCKASGYTFTHYAINWLRQAPGQRPEWMGTINTGNGNTKYSQNFQGRLTITRDTSASTVNMELSSLRSEDTAVYYCAGGYHDPLTSYNYNWFDPWGQGTMVTVSSGGGGSGGGGSGGGGSSELTQDPAVSVALGQTVRITCQGDSLRSYYTNWFQQKPGQAPLLVVYAKNKRPSGIPDRFSGSSSGNTASLTITGAQAEDEADYYCHSRDSSGNHVLFGGGTKLTVLG
Turning to B3, the binding result in [1] was “binds”; in experiment [2] it was “no binding”; in [3] it was “no binding”; in experiment [4], “no binding”; in [5], “binds”; in experiment [6], “no binding”. For the same molecule, the binding result in [7] is on record as “no binding”.

B4: I082G02 (scFv)
scFv: KVQLVESGGGVVQPGRSLRLSCVTSGFTFSSYGMHWVRQAPGKGLEWVAGISYDGAKEYYGDPVKGRFTISRDNTKKTLNLQMNSLRAEDTAVYYCARDGYRTNDALDIWGQGTLATVSSGGGGSGGGGSGGGGSDIQMTQSPSTLSASIGDRVTITCRASEGIYHWLAWYQQKPGKAPKLLIYKASSLASGAPSRFSGSGSGTDFTLTISSLQPDDFATYYCQQYSNYPLTFGGGTKLEIKR
In [8], B4 had a Kd of 6 nM.

B5: I037E07 (scFv)
scFv: QVQLVQSGAEVKKPGASVKVSCKASGYTFTNYGITWVRQAPGQGLEWMGWISAYNGNRNYAQKLQGRVTMTTDTSTSTAYMELRSLRSDDTAVYYCVRDGIDILLVPAALMDVWGRGTMVTVSSGGGGSGGGGSGGGGSQSVLTQPASVSGSPGQSITISCTGTSSDVGGYNYVSWYQQHPGKAPKLMIYEGSKRPSGVSNRFSGSKSGNTASLTISGLQAEDEADYYCSSYTTRSTRVFGGGTKLTVLG
On to B5, for which the binding result in experiment [1] is “binds”; in experiment [2], “no binding”; in [3], “no binding”; in [4] it was “no binding”; in experiment [5], “binds”; in [6], “no binding”. Moreover, the binding result in experiment [7] is on record as “no binding”.

B6: I037E12 (scFv)
scFv: B5 scFv with Q1E, R116K, M119L, S193N
As to B6, the binding result in experiment [1] is “binds”; in experiment [2], “no binding”; in experiment [3], “no binding”; in experiment [4] it was “no binding”; in experiment [5] it was “binds”; in experiment [6], “no binding”. In [7], the binding result is on record as “no binding”.

B7: I082H08 (scFv)
scFv: EVQLVESGGGLVQPGGSLRLSCAASGFTFSDYGMHWVRQRPGKGLEWIAFIGSDGSNKYYGDTVKGRFTISRDNAKNSLYLQMNSLRAEGTAVYYCARDWDMDVWGQGTMVTVSSGGGGSGGGGSGGGGSSHVILTQPRSVSGSPGQSVTISCTGTSSDVGGYHYVSWYQQHPGKAPRLMIYEVTKRPSGVSNRFSGSKSGNTASLTISGVQAEDEADYYCSSYTSASTVIFGGGTKLTVLG
Consider B7, for which, in experiment [8], the Kd worked out at 1 nM.

B8: I079F11 (scFv)
scFv: QVQLVQSGGGLVKPGGSLRLSCAASGFTFSSYSMNWVRQAPGKGLEWVAVVSSDGGNKYYADSVKGRFTISRDNSKNTVYLQMNSLRADDTAVYYCAKTGSGFDYWGRGTLVTVSSGGGGSGGGGSGGGGSDIQMTQSPSTLSASIGDRVTITCRASEGIYHWLAWYQQKPGKAPKLLIYKASSLASGAPSRFSGSGSGTDFTLTISSLQPDDFATYYCQQYSNYPLTFGGGTKLEIKR
With B8, in experiment [8], the Kd amounted to 5 nM.

B9: I099D03 (scFv)
scFv: QVQLVQSGAEVKKPGASVRVSCKSSGYTFTNYGISWVRQAPGQGLEWMGWISNNNGKTYYAQKVQGRVTMTTDTSTSTDYMELRGLRSDDTAIYYCARDNGGGTIGFDYWGRGTLVTVSSGGGGSGGGGSGGGGSAQAVLTQPSSVSGAPGQRVTMSCTGSSSNIGAGYDVHWYQQLPGTAPKLLIYDNTNRPSGVPDRFSGSRSGTSASLAITGLQAEDEADYFCQSYDITLSAVFGTGTKVTVLG
B9: the equilibrium dissociation constant (Kd) in experiment [8] was 4 nM. This Kd and that of the molecule before are within 1.5-fold of each other.

B10: I074B12 (scFv)
scFv: EVQLVQSGAEVKKPGSSVKVSCRASGGSFNHAISWVRQAPGRGLEWMGGILPMYGTANYAQKFQGRVTITADKLTNTVYMDLSRLRYEDTAVYYCARELGLSIVGATTGALDMWGRGTLVTVSSGGGGSGGGGSGGGGSALSYELTQPPSASGTPGQRVTISCSGSTSNIGSNAVNWYRQLPGTAPKLLVYSNNQVPSGVPDRFSGSKSGTSASLAISGLQSEDEADYYCAAWDDSLSGYVFGTGTQLTVLS
Consider B10, for which the binding result in experiment [9], in [4], in experiment [10], in [6] and in [7] was “no binding” throughout. In experiment [11], this molecule yielded an IC50 of 13 nM.

B11: I050A07 (scFv)
scFv: QVQLVQSGAEVKKPGASMKVSCKASAGRASAYGFAMHPIHWVRQAPGQGLEWMGWINGGTGNTKYSEKFLGRVTMTSDTSATTAYMELSSLRSEDTAVYYCARQDNDPLTGYKLGFDYWGKGTLVTVSSGGGGSGGGGSGGGGSAQSVVTQPPSVSGAPGQRVTISCTGSSTNVGAGYGVHWYQQFPETAPKLLIYGGSNRPSGVPDRFSGSQSGTSASLAITGLQAEDEADYYCQSYDTTLSGYVFGTGTKVTVLG
Regarding B11, the binding result in [2], in [4] and in experiment [7] was “no binding” in each case. Also, the IC50 in [11] amounted to 17.1 nM.
